Test results: publication PMC8748794

Molecular target: Spt16/Pob3 heterodimer (yeast FACT), full length (yeast) (UniProt P32558)
Sequence of UniProt P32558 (P32558 whole entry, chain 1 of 2): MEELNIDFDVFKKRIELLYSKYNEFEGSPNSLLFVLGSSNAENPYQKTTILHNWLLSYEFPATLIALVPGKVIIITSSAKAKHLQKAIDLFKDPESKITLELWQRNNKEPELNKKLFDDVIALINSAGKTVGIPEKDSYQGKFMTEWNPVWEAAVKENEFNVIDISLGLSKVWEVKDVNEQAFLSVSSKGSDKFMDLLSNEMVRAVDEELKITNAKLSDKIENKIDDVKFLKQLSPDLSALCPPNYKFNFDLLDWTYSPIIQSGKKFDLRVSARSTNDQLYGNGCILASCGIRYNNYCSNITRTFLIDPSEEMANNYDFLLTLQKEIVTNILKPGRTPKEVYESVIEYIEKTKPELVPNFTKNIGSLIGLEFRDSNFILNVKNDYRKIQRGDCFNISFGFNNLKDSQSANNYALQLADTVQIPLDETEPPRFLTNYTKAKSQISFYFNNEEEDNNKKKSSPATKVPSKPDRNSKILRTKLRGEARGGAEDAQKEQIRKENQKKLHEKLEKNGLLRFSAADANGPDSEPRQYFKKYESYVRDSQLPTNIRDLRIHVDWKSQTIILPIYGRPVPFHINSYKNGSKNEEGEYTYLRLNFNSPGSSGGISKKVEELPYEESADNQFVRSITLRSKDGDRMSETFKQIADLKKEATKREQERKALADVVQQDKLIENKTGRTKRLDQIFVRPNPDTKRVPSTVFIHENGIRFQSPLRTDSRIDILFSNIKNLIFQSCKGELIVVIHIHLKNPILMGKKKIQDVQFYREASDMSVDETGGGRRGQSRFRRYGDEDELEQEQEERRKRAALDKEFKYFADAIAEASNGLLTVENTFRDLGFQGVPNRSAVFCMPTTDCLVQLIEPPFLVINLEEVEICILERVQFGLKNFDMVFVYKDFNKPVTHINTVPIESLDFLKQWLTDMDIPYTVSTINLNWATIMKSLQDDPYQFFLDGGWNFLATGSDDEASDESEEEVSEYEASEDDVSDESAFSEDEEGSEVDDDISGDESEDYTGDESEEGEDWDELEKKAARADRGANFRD
Sequence of UniProt P32558 (Q04636 whole entry, chain 2 of 2, further chain): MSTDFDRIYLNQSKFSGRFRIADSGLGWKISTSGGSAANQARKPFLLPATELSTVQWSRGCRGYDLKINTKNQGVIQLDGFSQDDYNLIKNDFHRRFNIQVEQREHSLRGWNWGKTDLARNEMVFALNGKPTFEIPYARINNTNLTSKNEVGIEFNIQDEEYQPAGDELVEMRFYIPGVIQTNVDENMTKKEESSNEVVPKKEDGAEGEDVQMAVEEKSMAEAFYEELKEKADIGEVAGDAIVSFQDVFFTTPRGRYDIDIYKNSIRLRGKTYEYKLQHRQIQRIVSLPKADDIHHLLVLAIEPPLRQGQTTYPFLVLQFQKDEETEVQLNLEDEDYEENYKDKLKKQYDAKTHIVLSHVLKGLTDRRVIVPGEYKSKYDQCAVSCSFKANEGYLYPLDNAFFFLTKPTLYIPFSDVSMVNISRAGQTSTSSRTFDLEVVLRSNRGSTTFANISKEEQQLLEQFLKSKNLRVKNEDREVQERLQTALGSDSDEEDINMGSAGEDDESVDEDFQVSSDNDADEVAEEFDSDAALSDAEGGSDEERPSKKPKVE

Nhp6 (non-histone protein), HMGB-domain factor (from UniProt P11632 1-93) (natural protein)
fraction of FACT particles in the open conformation (>90°) by negative-stain EM; 36% for FACT alone: 51%
